Reference: the supplement of paper PMC10567573

B1: MYOZ1 (parent)
chain: FSDSSMDHFQKFLPTVGGQLGTAG
B2: PBXIP1 (parent)
chain: LPVETLGPASRMDPESERALQAPH

Variants of: B1
Experiment: protein stability index of a GFP-peptide fusion (GPS, HEK-293T) (PSI 1-6); higher = more stable
Settings: c terminus: a fixed tail appended
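Also: lentivirally expressed fusions sorted by FACS into six bins by GFP to DsRed ratio, PSI derived from sequencing read proportions per bin multiplied by bin number.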

Variant | protein stability index
FQDSSMDHFQKFLPTVGGQLGTAG | 2.59
FRDSSMDHFQKFLPTVGGQLGTAG | 1.94
FEDSSMDHFQKFLPTVGGQLGTAG | 2.81
FHDSSMDHFQKFLPTVGGQLGTAG | 1.5
FCDSSMDHFQKFLPTVGGQLGTAG | 1.5
FMDSSMDHFQKFLPTVGGQLGTAG | 2.63
FADSSMDHFQKFLPTVGGQLGTAG | 1.77
FNDSSMDHFQKFLPTVGGQLGTAG | 2.23
FLDSSMDHFQKFLPTVGGQLGTAG | 3.52
FGDSSMDHFQKFLPTVGGQLGTAG | 2.9
FPDSSMDHFQKFLPTVGGQLGTAG | 2.54
FFDSSMDHFQKFLPTVGGQLGTAG | 1.62
FIDSSMDHFQKFLPTVGGQLGTAG | 1.92
FDDSSMDHFQKFLPTVGGQLGTAG | 2.95
FYDSSMDHFQKFLPTVGGQLGTAG | 1.83
NSDSSMDHFQKFLPTVGGQLGTAG | 3.23
CSDSSMDHFQKFLPTVGGQLGTAG | 2.26
HSDSSMDHFQKFLPTVGGQLGTAG | 3.88
VSDSSMDHFQKFLPTVGGQLGTAG | 3.56
WSDSSMDHFQKFLPTVGGQLGTAG | 2.56
TSDSSMDHFQKFLPTVGGQLGTAG | 3.51
GSDSSMDHFQKFLPTVGGQLGTAG | 2.41

Variant | protein stability index
ISDSSMDHFQKFLPTVGGQLGTAG | 2.92
SSDSSMDHFQKFLPTVGGQLGTAG | 4.12
KSDSSMDHFQKFLPTVGGQLGTAG | 3.77
RSDSSMDHFQKFLPTVGGQLGTAG | 3.41
LSDSSMDHFQKFLPTVGGQLGTAG | 3.11
MSDSSMDHFQKFLPTVGGQLGTAG | 3.7
YSDSSMDHFQKFLPTVGGQLGTAG | 2.83
ESDSSMDHFQKFLPTVGGQLGTAG | 3.38
ASDSSMDHFQKFLPTVGGQLGTAG | 3.62
PSDSSMDHFQKFLPTVGGQLGTAG | 3.6
FSNSSMDHFQKFLPTVGGQLGTAG | 1.67
FSQSSMDHFQKFLPTVGGQLGTAG | 2.27
FSISSMDHFQKFLPTVGGQLGTAG | 1.89
FSLSSMDHFQKFLPTVGGQLGTAG | 1.55
FSMSSMDHFQKFLPTVGGQLGTAG | 1.45
FSESSMDHFQKFLPTVGGQLGTAG | 3.06
FSASSMDHFQKFLPTVGGQLGTAG | 1.96
FSFSSMDHFQKFLPTVGGQLGTAG | 1.94
FSPSSMDHFQKFLPTVGGQLGTAG | 1.56
FSHSSMDHFQKFLPTVGGQLGTAG | 1.88
FSKSSMDHFQKFLPTVGGQLGTAG | 1.63

Variants of: B2
Experiment: as above
Settings: c terminus: a fixed tail appended

Variant | protein stability index
LPVETLGPASRMDPESERCLQAPH | 4.48
LPVETLGPASRMDPESERDLQAPH | 4.41
LPVETLGPASRMDPESERNLQAPH | 4.45
LPVETLGPASRMDPESERFLQAPH | 4.05
LPVETLGPASRMDPESERQLQAPH | 4.46
LPVETLGPASRMDPESERWLQAPH | 3.82
LPVETLGPASRMDPESERLLQAPH | 4.22
LPVETLGPASRMDPESERPLQAPH | 4.71
LPVETLGPASRMDPESERTLQAPH | 4.63
LPVETLGPASRMDPESERMLQAPH | 4.21
LPVETLGPASRMDPESERHLQAPH | 4.31
LPVETLGPASRMDPESERYLQAPH | 3.64
LPVETLGPASRMDPESERRLQAPH | 4.09
LPVETLGPASRMDPESERELQAPH | 4.68
LPVETLGPASRMDPESERILQAPH | 4
LPVETLGPASRMDPESERGLQAPH | 4.23
LPVETLGPASRMDPESERVLQAPH | 4.46
LPVETLGPASRMDPESERKLQAPH | 4.32
LPVETLGPASRMDPESERSLQAPH | 4.19
LPVETLGPASRMDPESERALYAPH | 3.67
LPVETLGPASRMDPESERALEAPH | 4.79
LPVETLGPASRMDPESERALAAPH | 3.93
LPVETLGPASRMDPESERALWAPH | 3.22
LPVETLGPASRMDPESERALNAPH | 4.28
LPVETLGPASRMDPESERALKAPH | 4.28

Variant | protein stability index
LPVETLGPASRMDPESERALDAPH | 4
LPVETLGPASRMDPESERALRAPH | 4.44
LPVETLGPASRMDPESERALLAPH | 3.96
LPVETLGPASRMDPESERALFAPH | 3.8
LPVETLGPASRMDPESERALIAPH | 4.09
LPVETLGPASRMDPESERALMAPH | 4.05
LPVETLGPASRMDPESERALTAPH | 4.55
LPVETLGPASRMDPESERALHAPH | 3.92
LPVETLGPASRMDPESERALCAPH | 4.14
LPVETLGPASRMDPESERALSAPH | 4.45
LPVETLGPASRMDPESERALVAPH | 4.39
LPVETLGPASRMDPESERALPAPH | 4.53
LPVETLGPASRMDPESERALGAPH | 3.97
LPVETLGPASRMDPESESALQAPH | 4.19
LPVETLGPASRMDPESEYALQAPH | 3.7
LPVETLGPASRMDPESEEALQAPH | 4.47
LPVETLGPASRMDPESEAALQAPH | 4.57
LPVETLGPASRMDPESELALQAPH | 3.69
LPVETLGPASRMDPESEGALQAPH | 4.66
LPVETLGPASRMDPESEPALQAPH | 4.18
LPVETLGPASRMDPESEHALQAPH | 4.77
LPVETLGPASRMDPESEVALQAPH | 4.45
LPVETLGPASRMDPESECALQAPH | 4.12
LPVETLGPASRMDPESEWALQAPH | 3.66
LPVETLGPASRMDPESENALQAPH | 4.62

Variant | protein stability index
LPVETLGPASRMDPESEQALQAPH | 4.55
LPVETLGPASRMDPESEDALQAPH | 4.44
LPVETLGPASRMDPESEKALQAPH | 4.6
LPVETLGPASRMDPESEMALQAPH | 4.73
LPVETLGPASRMDPESEFALQAPH | 4.07
LPVETLGPASRMDPESETALQAPH | 4.82
LPVETLGPASRMDPESEIALQAPH | 4.29
LPVETLGPASRMDPESPRALQAPH | 4.18
LPVETLGPASRMDPESYRALQAPH | 3.92
LPVETLGPASRMDPESQRALQAPH | 4.06
LPVETLGPASRMDPESRRALQAPH | 3.91
LPVETLGPASRMDPESNRALQAPH | 4.29
LPVETLGPASRMDPESWRALQAPH | 3.4
LPVETLGPASRMDPESVRALQAPH | 4.62
LPVETLGPASRMDPESTRALQAPH | 4.23
LPVETLGPASRMDPESSRALQAPH | 4.56
LPVETLGPASRMDPESLRALQAPH | 3.72
LPVETLGPASRMDPESMRALQAPH | 3.9
LPVETLGPASRMDPESKRALQAPH | 4.19
LPVETLGPASRMDPESERANQAPH | 4.42
LPVETLGPASRMDPESERAFQAPH | 4.28
LPVETLGPASRMDPESERAQQAPH | 4.7
LPVETLGPASRMDPESERATQAPH | 4.58
LPVETLGPASRMDPESERASQAPH | 4.49
LPVETLGPASRMDPESERAPQAPH | 4.72

Variant | protein stability index
LPVETLGPASRMDPESERAKQAPH | 4.41
LPVETLGPASRMDPESERAVQAPH | 3.82
LPVETLGPASRMDPESERARQAPH | 4.86
LPVETLGPASRMDPESERAWQAPH | 3.7
LPVETLGPASRMDPESERAHQAPH | 4.27
LPVETLGPASRMDPESERAYQAPH | 4.14
LPVETLGPASRMDPESERACQAPH | 3.99
LPVETLGPASRMDPESERAIQAPH | 4.55
LPVETLGPASRMDPESERAMQAPH | 4.45
LPVETLGPASRMDPESERAEQAPH | 4.81
LPVETLGPASRMDPESERAGQAPH | 4.46
LPVETLGPASRMDPESERAAQAPH | 4.26
LPVETLGPASRMDPESERADQAPH | 4.92
LPVETLGPASRMDPESERALQWPH | 3.25
LPVETLGPASRMDPESERALQCPH | 4.45
LPVETLGPASRMDPESERALQVPH | 4.2
LPVETLGPASRMDPESERALQFPH | 4.01
LPVETLGPASRMDPESERALQMPH | 3.68
LPVETLGPASRMDPESERALQHPH | 4.76
LPVETLGPASRMDPESERALQRPH | 4.78
LPVETLGPASRMDPESERALQNPH | 4.5
LPVETLGPASRMDPESERALQQPH | 4.45
LPVETLGPASRMDPESERALQEPH | 4.68
LPVETLGPASRMDPESERALQTPH | 4.7
LPVETLGPASRMDPESERALQYPH | 4.31

Variant | protein stability index
LPVETLGPASRMDPESERALQGPH | 4.72
LPVETLGPASRMDPESERALQKPH | 4.4
LPVETLGPASRMDPESERALQLPH | 3.98
LPVETLGPASRMDPESERALQSPH | 4.36
LPVETLGPASRMDPESERALQIPH | 4.23
LPVETLGPASRMDPESERALQDPH | 4.7
LPVETLGPASRMDPESERALQPPH | 4.27
LPVETLGPASRMDPESERALQAGH | 5.01
LPVETLGPASRMDPESERALQASH | 4.78
LPVETLGPASRMDPESERALQAIH | 4.28
LPVETLGPASRMDPESERALQAWH | 3.92
LPVETLGPASRMDPESERALQATH | 4.57
LPVETLGPASRMDPESERALQAHH | 4.45
LPVETLGPASRMDPESERALQAQH | 4.06
LPVETLGPASRMDPESERALQAMH | 4.16
LPVETLGPASRMDPESERALQAEH | 4.8
LPVETLGPASRMDPESERALQARH | 4.66
LPVETLGPASRMDPESERALQALH | 4.49
LPVETLGPASRMDPESERALQAYH | 3.99
LPVETLGPASRMDPESERALQADH | 4.6
LPVETLGPASRMDPESERALQAFH | 3.98
LPVETLGPASRMDPESERALQAAH | 4.09
LPVETLGPASRMDPESERALQAVH | 3.92
LPVETLGPASRMDPESERALQANH | 4.26
LPVETLGPASRMDPESERALQAKH | 4.57

Variant | protein stability index
LPVETLGPASRMDPESERALQACH | 4.19
LPVETLGPASRMDPESERALQAPV | 4.47
LPVETLGPASRMDPESERALQAPI | 3.72
LPVETLGPASRMDPESERALQAPC | 4.05
LPVETLGPASRMDPESERALQAPA | 4.44
LPVETLGPASRMDPESERALQAPQ | 4.31
LPVETLGPASRMDPESERALQAPN | 4.61
LPVETLGPASRMDPESERALQAPR | 4.16
LPVETLGPASRMDPESERALQAPE | 4.36
LPVETLGPASRMDPESERALQAPM | 4.23
LPVETLGPASRMDPESERALQAPY | 4.07
LPVETLGPASRMDPESERALQAPK | 4.5
LPVETLGPASRMDPESERALQAPP | 4.03
LPVETLGPASRMDPESERALQAPL | 3.94
LPVETLGPASRMDPESERALQAPS | 4.75
LPVETLGPASRMDPESERALQAPW | 4.07
LPVETLGPASRMDPESERALQAPD | 4.75
LPVETLGPASRMDPESERALQAPF | 4.21
LPVETLGPASRMDPESERALQAPT | 4.59
LPVETLGPASRMDPESERALQAPG | 4.26
